Assay results reported in patent US12528864 (GlaxoSmithKline, dated 2026).

What was measured:
[1] = molecular target: T1, recombinant human CD96v2 (human, UniProt P40200-2 22-503, limits assumed, biotinylated (site not stated)); assay: MSD solution equilibrium titration (MSD-SET), 25 C
T1 construct: Soluble recombinant protein used in MSD-SET; also called Biotinylated human CD96 protein
T1 sequence (looked up): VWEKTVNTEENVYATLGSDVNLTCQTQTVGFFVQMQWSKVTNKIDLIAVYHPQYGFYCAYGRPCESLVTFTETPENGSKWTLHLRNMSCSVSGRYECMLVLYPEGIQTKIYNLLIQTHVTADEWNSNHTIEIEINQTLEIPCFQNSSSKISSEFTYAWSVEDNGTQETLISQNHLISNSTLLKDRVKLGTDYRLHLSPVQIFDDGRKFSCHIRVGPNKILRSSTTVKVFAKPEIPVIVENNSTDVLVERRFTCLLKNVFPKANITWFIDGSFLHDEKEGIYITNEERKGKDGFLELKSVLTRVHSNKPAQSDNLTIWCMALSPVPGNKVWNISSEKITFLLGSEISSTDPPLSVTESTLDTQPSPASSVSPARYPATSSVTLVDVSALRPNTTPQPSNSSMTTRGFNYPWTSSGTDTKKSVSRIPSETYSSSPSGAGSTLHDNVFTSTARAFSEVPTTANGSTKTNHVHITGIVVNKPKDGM

[2] = molecular target: T2, recombinant murine CD96v2 (mouse, UniProt Q3U0X8 22-536, limits assumed); assay: MSD solution equilibrium titration (MSD-SET), 25 C
T2 construct: Soluble recombinant protein used in MSD-SET; also called mouse CD96
T2 sequence (looked up): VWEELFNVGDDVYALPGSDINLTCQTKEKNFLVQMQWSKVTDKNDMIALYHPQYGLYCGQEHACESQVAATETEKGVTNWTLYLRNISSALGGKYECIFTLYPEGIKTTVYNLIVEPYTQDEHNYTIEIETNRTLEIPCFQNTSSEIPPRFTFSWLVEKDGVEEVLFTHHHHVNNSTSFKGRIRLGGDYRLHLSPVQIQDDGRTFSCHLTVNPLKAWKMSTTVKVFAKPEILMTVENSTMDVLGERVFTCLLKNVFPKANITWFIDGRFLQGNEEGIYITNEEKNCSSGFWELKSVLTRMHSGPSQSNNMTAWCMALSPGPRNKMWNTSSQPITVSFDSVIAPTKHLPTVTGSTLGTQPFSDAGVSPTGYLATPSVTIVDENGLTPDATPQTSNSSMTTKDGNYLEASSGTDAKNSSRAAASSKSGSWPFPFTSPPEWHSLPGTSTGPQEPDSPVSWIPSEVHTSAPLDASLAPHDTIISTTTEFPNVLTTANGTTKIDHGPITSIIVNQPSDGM

[3] = molecular target: T3, recombinant cynomolgus monkey CD96v2 (cynomolgus monkey, UniProt A0A2K5TWV6 22-487, biotinylated (site not stated)); assay: MSD solution equilibrium titration (MSD-SET), 25 C
T3 construct: Soluble recombinant protein used in MSD-SET; also called cynomolgus monkey biotinylated CD96 protein
T3 sequence: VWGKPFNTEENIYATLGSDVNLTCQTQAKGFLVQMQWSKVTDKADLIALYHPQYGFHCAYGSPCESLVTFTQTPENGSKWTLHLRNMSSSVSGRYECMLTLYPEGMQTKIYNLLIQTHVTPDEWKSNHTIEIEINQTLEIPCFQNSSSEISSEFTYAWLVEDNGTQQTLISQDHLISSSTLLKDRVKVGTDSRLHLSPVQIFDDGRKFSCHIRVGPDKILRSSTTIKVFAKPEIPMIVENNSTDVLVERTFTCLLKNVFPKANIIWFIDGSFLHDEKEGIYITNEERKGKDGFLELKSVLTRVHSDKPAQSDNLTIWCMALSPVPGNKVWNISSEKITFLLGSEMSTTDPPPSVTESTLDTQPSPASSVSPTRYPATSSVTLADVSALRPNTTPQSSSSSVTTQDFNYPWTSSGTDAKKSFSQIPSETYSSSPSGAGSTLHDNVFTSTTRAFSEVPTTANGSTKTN

[4] = molecular target: T4, cynomolgus monkey CD96, native, on primary cynomolgus monkey T cells (cynomolgus monkey, UniProt A0A2K5TWV6 22-569); assay: flow cytometry on activated cynomolgus monkey CD3+ T cells; mean of 3 samples; cynomolgus monkey CD3+ T cells activated with anti-CD2/3/28 beads for 17 days; mean of 3 samples
T4 construct: whole, on cells
T4 sequence: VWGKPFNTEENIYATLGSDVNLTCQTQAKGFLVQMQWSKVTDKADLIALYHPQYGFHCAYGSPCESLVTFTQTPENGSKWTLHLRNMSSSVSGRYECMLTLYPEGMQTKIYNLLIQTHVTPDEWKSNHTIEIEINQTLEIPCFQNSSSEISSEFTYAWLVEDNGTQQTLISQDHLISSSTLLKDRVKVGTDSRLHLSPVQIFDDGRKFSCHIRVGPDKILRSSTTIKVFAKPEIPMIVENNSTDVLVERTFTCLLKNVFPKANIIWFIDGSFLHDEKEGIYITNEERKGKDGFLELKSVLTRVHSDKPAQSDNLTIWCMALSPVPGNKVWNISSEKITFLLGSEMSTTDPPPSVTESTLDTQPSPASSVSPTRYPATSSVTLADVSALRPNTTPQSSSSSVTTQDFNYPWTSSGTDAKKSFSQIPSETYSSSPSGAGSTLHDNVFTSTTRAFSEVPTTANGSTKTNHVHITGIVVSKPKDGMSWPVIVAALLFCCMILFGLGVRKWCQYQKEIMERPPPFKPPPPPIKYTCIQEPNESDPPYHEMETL

[5] = molecular target: T2, recombinant murine CD96v2; assay: MSD-SET solution equilibrium titration, antibody titrated against constant CD96, free antigen detected
[6] = molecular target: T5, human complement component C1q (human, UniProt P02745 23-245; P02746 28-253; P02747 29-245); assay: SPR
T5 construct: the three subunits are from general knowledge
T5 sequence (P02745 23-245 limits assumed, chain 1 of 3): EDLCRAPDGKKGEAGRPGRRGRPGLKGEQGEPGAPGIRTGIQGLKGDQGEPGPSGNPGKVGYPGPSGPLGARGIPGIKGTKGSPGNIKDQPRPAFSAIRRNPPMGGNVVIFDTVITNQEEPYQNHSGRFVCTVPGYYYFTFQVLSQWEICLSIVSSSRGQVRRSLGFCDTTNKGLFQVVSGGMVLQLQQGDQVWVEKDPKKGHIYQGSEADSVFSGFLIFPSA
T5 sequence (P02746 28-253 limits assumed, chain 2 of 3): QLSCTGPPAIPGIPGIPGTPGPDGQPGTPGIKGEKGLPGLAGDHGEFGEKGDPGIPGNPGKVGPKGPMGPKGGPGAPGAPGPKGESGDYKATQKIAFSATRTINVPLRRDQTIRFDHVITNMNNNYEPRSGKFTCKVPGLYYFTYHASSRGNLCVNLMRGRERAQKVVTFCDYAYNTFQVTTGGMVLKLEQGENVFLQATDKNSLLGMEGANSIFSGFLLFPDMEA
T5 sequence (P02747 29-245 limits assumed, chain 3 of 3): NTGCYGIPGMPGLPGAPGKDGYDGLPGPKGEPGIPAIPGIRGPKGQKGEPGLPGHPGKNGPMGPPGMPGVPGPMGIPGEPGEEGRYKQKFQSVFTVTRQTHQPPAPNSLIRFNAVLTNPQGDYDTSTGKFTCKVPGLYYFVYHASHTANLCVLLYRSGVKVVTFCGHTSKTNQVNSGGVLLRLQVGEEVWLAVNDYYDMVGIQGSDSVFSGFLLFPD

[7] = molecular target: T6, blood derived cynomolgus monkey CD96v2 on transiently transfected HEK cells (cynomolgus monkey); assay: flow cytometry on transiently transfected HEK cells (Cyno blood derived CD96v2)
T6 construct: also called Blood derived Cyno CD96v2

[8] = molecular target: T4, cynomolgus monkey CD96, native, on …; assay: flow cytometry on activated cynomolgus monkey T cells, pooled donor
[9] = molecular target: T7, recombinant human CD226 (human, UniProt Q15762 19-247, limits assumed); assay: surface plasmon resonance (SPR)
T7 sequence (looked up): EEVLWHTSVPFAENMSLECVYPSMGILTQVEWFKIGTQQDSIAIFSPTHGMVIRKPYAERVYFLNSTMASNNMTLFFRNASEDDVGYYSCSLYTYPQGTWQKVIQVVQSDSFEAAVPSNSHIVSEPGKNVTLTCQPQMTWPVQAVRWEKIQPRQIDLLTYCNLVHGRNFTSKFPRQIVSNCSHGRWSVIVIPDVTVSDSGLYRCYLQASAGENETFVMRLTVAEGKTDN

Kd [1]: 0.02 nM
Kd [2]: 0.479 nM
Kd [3]: 0.278 nM
EC50 [4]: 0.0766 nM
IC50 (read off the curve) [5]: ~0.5 nM
Kd [6]: 94.4 nM
EC50 (read off the curve) [7]: ~7 nM
EC50 (read off the curve) [8]: ~0.05 nM
binding result [9]: no binding
B1: 42Y073-86F08-66 (antibody)
heavy: not shown
light: DIQLTQSPSSLSASVGDRVTITCRASQSISSYLNWYQQKPGKAPKLLIYAASSLQSGVPSRFSGSGSGTDFTLTISSLQPEDFATYYCQQVLHTITFGGGTKVEIKRTVAAPSVFIFPPSDEQLKSGTASVVCLLNNFYPREAKVQWKVDNALQSGNSQESVTEQDSKDSTYSLSSTLTLSKADYEKHKVYACEVTHQGLSSPVTKSFNRGEC
notes: also called GSK 6097608; GSK6097608
